# Data reported in the RNAGym collection of RNA variant scans (doi:10.1093/molbev/msab373).
# B1: Azoarcus group I ribozyme (parent)
# chain: GUGCCUUGCGCCGGGAAACCACGCAAGGGAUGGUGUCAAAUUCGGCGAAACCUAAGCGCCCGCCCGGGCGUAUGGCAACGCCGAGCCAAGCUUCGGCGCCUGCGCCGAUGAAGGUGUAGAGACUAGACGGCACCCACCUAAGGCAAACGCUAUGGUGAAGGCAUAGUCCAGGGAGUGGCGAAAGUCACACAAACCGG
# Variants of: B1
# Experiment: reverse-splicing fitness (ratio to wild type); higher = more active; in vitro selection; Mg2+ level not given
# In short: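 An in vitro group I ribozyme library with randomized positions was T7-transcribed and gel-purified. In triplicate, 10 pmol RNA in EPPS pH 7.5 was reacted with 50 pmoles of a 30-nt RNA substrate for 1 h at 37 °C across several added MgCl2 levels (1–48 mM), then stopped with EDTA. Products were reverse transcribed from a substrate-complementary primer, PCR-amplified and sequenced (HiSeq 4000). Fitness is a variant's read proportion after selection over that before, normalised to wild type.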
row,Variant,reverse-splicing fitness
1,C82A A111C A145C C150A,0.0144
2,C82A A111C A145C C150U,0.0486
3,C82A A111C A145C C150U C169U U176G,0.00776
4,C82A A111C A145C C150U C169U U176C,0.0108
5,C82A A111C A145C C150U C169U U176A,0.0133
6,C82A A111C A120U A145C C150A U176C,0.00528
7,C82A A111C A120U A145C C150A U176A,0.00393
8,C82A A111C A120U A145C C150A U176G,0.00289
9,C82A A111C A120U A145G C150A C169A,0.00708
10,C82A A111C A120U A145G C150A C169U,0.00559
11,C82A A111C A120U A145G C150A C169G,0.00577
12,C82A A111C A145C C150G C169G U176G,0.00714
13,C82A A111C A145C C150G C169G U176A,0.00778
14,C82A A111C A145C C150G C169G U176C,0.00759
15,C82A A111C A120U A145C C150U U176G,0.0028
16,C82A A111C A120U A145C C150U U176A,0.00424
17,C82A A111C A120U A145C C150U U176C,0.00525
18,C82A A111C A120U A145U C150G C169A U176C,0.00377
19,C82A A111C A120U A145U C150G C169A U176G,0.00338
20,C82A A111C A120U A145U C150G C169A U176A,0.00379
21,C82A A111C A120U A145G C169A,0.00372

row,Variant,reverse-splicing fitness
1,C82A A111C A120U A145G C169G,0.00415
2,C82A A111C A120U A145G C169U,0.00493
3,C82A A111C A145C C150A C169A U176C,0.0113
4,C82A A111C A145C C150A C169A U176A,0.015
5,C82A A111C A145C C150A C169A U176G,0.0103
6,C82A A111C A120U A145G C169G U176G,0.00244
7,C82A A111C A120U A145G C169G U176C,0.00437
8,C82A A111C A120U A145G C169G U176A,0.00381
9,C82A A111C A120G C169G,0.00872
10,C82A A111C A120G C169U,0.00841
11,C82A A111C A120U A145G C150U U176A,0.00986
12,C82A A111C A120U A145G C150U U176C,0.0108
13,C82A A111C A120U A145G C150U U176G,0.00369
14,C82A A111C A120U C169G,0.00388
15,C82A A111C A120U C169U,0.00555
16,C82A A111C A120U C169A,0.0037
17,C82A A111C A120U C150U,0.0167
18,C82A A111C A120U C150A,0.00696
19,C82A A111C A120U C150G,0.00737
20,C82A A111C A120U C150U C169G U176A,0.00669
21,C82A A111C A120U C150U C169G U176G,0.00288

row,Variant,reverse-splicing fitness
1,C82A A111C A120U C150U C169G U176C,0.00483
2,C82A A111C A120U A145U C169A U176C,0.00315
3,C82A A111C A120U A145U C169A U176A,0.00312
4,C82A A111C A120U A145U C169A U176G,0.00264
5,C82A A111C A145C C150U U176C,0.0355
6,C82A A111C A145C C150U U176G,0.00993
7,C82A A111C A145C C150U U176A,0.0236
8,C82A A111C A120U A145C C150A C169U,0.00355
9,C82A A111C A120U A145C C150A C169G,0.00308
10,C82A A111C A120U A145C C150A C169A,0.00282
11,C82A A111C A145C C150G U176A,0.00906
12,C82A A111C A145C C150G U176G,0.00408
13,C82A A111C A145C C150G U176C,0.016
14,C82A A111C A145C C150A C169A,0.00835
15,C82A A111C A145C C150A C169U,0.00921
16,C82A A111C A145C C150A C169G,0.0093
17,C82A A111C A120U A145G C150G C169A,0.00782
18,C82A A111C A120U A145G C150G C169G,0.00663
19,C82A A111C A120U A145G C150G C169U,0.00759
20,C82A A111C A120U A145U U176C,0.0103
21,C82A A111C A120U A145U U176A,0.00697

row,Variant,reverse-splicing fitness
1,C82A A111C A120U A145U U176G,0.00339
2,C82A A111C A120G C169U U176G,0.00559
3,C82A A111C A120G C169U U176A,0.0144
4,C82A A111C A120G C169U U176C,0.0145
5,C82A A111C A120U A145U C150U C169U U176A,0.00402
6,C82A A111C A120U A145U C150U C169U U176C,0.00348
7,C82A A111C A120U A145U C150U C169U U176G,0.00288
8,C82A A111C A145C C150A C169U U176G,0.00856
9,C82A A111C A145C C150A C169U U176A,0.0138
10,C82A A111C A145C C150A C169U U176C,0.0109
11,C82A A111C A120U A145U C150A U176A,0.00477
12,C82A A111C A120U A145U C150A U176G,0.00301
13,C82A A111C A120U A145U C150A U176C,0.0062
14,C82A A111C A120U A145U C169G U176C,0.00308
15,C82A A111C A120U A145U C169G U176A,0.00336
16,C82A A111C A120U A145U C169G U176G,0.00259
17,C82A A111C A145C C169A,0.00711
18,C82A A111C A145C C169U,0.0124
19,C82A A111C A145C C169G,0.00923
20,C82A A111C A120U A145G C150U C169U U176C,0.00469
